In the supplement of paper PMC7877785:
± gives the uncertainty stated by the source.

Test: self-splicing fitness, log relative to wild type (ln ratio); higher = more splicing; Tetrahymena group I intron in knt gene, E. coli kanamycin selection, DiMSum; sequences stand for … in CUCUCU…GGAGGGAAAAGUUAUCAGGCAUGCACCUGGUAGCUAGUCUUUAAACCAAUAGAUUGCAUCGGUUUAAAAGGCAAGACCGUCAAAUUGCGGGAAAGGGGUCAACAGCCGUUCAGUACCAAGUCUCAGGGGAAACUUUGAGAUGGCCUUGCAAAGGGUAUGGUAAUAAGCUGACGGACAUGGUCCUAACCACGCAGCCAAGUCCUAAGUCAACAGAUCUUCUGUUGAUAUGGAUGCAGUUCACAGACUAAAUGUCGGUCGGGGAAGAUGUAUUCUUCUCAUAAGAUAUAGUCGGACCUCUCCUUAAUGGGAGCUAGCGGAUGAAGUGAUGCAACACUGGAGCCGCUGGGAACUAAUUUGUAUGCGAAAGUAUAUUGAUUAGUUUUGGAGUACUCGUGGUCG
How it was run: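 Six replicate transformations of E. coli BL21(DE3) with a pET-22b(+) library were grown overnight at 37°C or 30°C. The library randomised all eight P1ex-region intron nucleotides, the intron lying in the knt kanamycin-resistance gene, and plates were LB agar with or without 25 μg/mL kanamycin plus 100 μg/mL carbenicillin, 50 μM IPTG and 0.2% rhamnose. Pooled colonies were amplicon-sequenced on an Illumina HiSeq 2500, and fitness is the DiMSum error-weighted combination of wild-type-normalised replicate fold changes, kanamycin versus none.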

Sequence	self-splicing fitness (ln) (30 °C)	self-splicing fitness (ln) (37 °C)
GUAGAGCAAUAUUACGAAAC	0.2 ± 0.34	-0.546 ± 0.32
GUAGAGCAAUAUUACGAAGG	-1.87 ± 0.31	–
GUAGAGCAAUAUUACGACCG	-1.28 ± 0.2	-1.98 ± 0.46
GUAGAGCAAUAUUACGACGA	-1.85 ± 0.15	-0.21 ± 0.16
GUAGAGCAAUAUUACGAGGA	-2.61 ± 0.26	–
GUAGAGCAAUAUUACGAGGG	-3.25 ± 0.27	-2.38 ± 0.37
GUAGAGCAAUAUUACGAUUA	-0.625 ± 0.1	-0.396 ± 0.14
GUAGAGCAAUAUUACGCACC	-2.47 ± 0.28	-0.709 ± 0.2
GUAGAGCAAUAUUACGCACG	-0.718 ± 0.24	-1.99 ± 0.27
GUAGAGCAAUAUUACGCUCA	-0.751 ± 0.1	-0.0338 ± 0.16
GUAGAGCAAUAUUACGCUCC	-1.72 ± 0.36	–
GUAGAGCAAUAUUACGCUUA	-0.468 ± 0.087	-0.371 ± 0.1
GUAGAGCAAUAUUACGCUUG	-0.837 ± 0.12	-0.536 ± 0.19
GUAGAGCAAUAUUACGGAGU	-2.27 ± 0.23	-1.61 ± 0.18
GUAGAGCAAUAUUACGGCGU	-0.532 ± 0.077	0.0227 ± 0.088
GUAGAGCAAUAUUACGUACA	-0.971 ± 0.11	-1.12 ± 0.17
GUAGAGCAAUAUUACGUCAC	-1.65 ± 0.1	-1.06 ± 0.12
GUAGAGCAAUAUUACGUCCC	-1.01 ± 0.37	0.144 ± 0.41
GUAGAGCAAUAUUACGUCCU	-1.1 ± 0.2	-0.4 ± 0.22
GUAGAGCAAUAUUACGUUAG	-2.43 ± 0.12	-0.99 ± 0.19
GUAGAGCAAUAUUACGUUAU	-1.68 ± 0.086	-0.698 ± 0.091
GUAUAGCAAUAUUACGACAG	-2.58 ± 0.19	-1.9 ± 0.25
GUAUAGCAAUAUUACGAUUC	0.127 ± 0.1	0.598 ± 0.13
GUAUAGCAAUAUUACGCAGC	-2.32 ± 0.37	-1.25 ± 0.33
GUAUAGCAAUAUUACGCCCA	-1.33 ± 0.15	-0.76 ± 0.17
GUAUAGCAAUAUUACGCGGG	-3.7 ± 0.27	-2.23 ± 0.26

Sequence	self-splicing fitness (ln) (30 °C)	self-splicing fitness (ln) (37 °C)
GUAUAGCAAUAUUACGCGGU	–	-2.53 ± 0.44
GUAUAGCAAUAUUACGCUGA	-1.91 ± 0.2	-1.81 ± 0.17
GUAUAGCAAUAUUACGCUGC	-2.6 ± 0.48	-0.913 ± 0.3
GUAUAGCAAUAUUACGGAAA	-2.1 ± 0.43	-2.81 ± 0.32
GUAUAGCAAUAUUACGGACG	-2.73 ± 0.41	-1.3 ± 0.33
GUAUAGCAAUAUUACGGAGG	-2.94 ± 0.23	-3.14 ± 0.4
GUAUAGCAAUAUUACGGCAG	-4.25 ± 0.42	-1.5 ± 0.25
GUAUAGCAAUAUUACGGCCA	-0.388 ± 0.23	0.0249 ± 0.18
GUAUAGCAAUAUUACGGGUG	-3.76 ± 0.16	-2.86 ± 0.22
GUAUAGCAAUAUUACGUAGC	-3.22 ± 0.19	-1.46 ± 0.14
GUAUAGCAAUAUUACGUCGA	-2.2 ± 0.29	-1.03 ± 0.2
GUAUAGCAAUAUUACGUCGG	-3.48 ± 0.26	-1.31 ± 0.22
GUAUAGCAAUAUUACGUCUG	-3.17 ± 0.17	-1.08 ± 0.14
GUAUAGCAAUAUUACGUUAC	-3.43 ± 0.41	–
GUAUAGCAAUAUUACGUUCU	-2.27 ± 0.13	-0.863 ± 0.13
GUCAAGCAAUAUUACGAAUC	-2.16 ± 0.11	-0.596 ± 0.12
GUCAAGCAAUAUUACGAAUG	-4.11 ± 0.22	-1.18 ± 0.1
GUCAAGCAAUAUUACGACAA	-3.81 ± 0.4	-2.58 ± 0.27
GUCAAGCAAUAUUACGACAC	-0.691 ± 0.12	-0.114 ± 0.14
GUCAAGCAAUAUUACGACGA	-3.52 ± 0.29	-1.88 ± 0.18
GUCAAGCAAUAUUACGACUC	-1.73 ± 0.15	-0.881 ± 0.15
GUCAAGCAAUAUUACGACUU	-3.18 ± 0.099	-1.86 ± 0.1
GUCAAGCAAUAUUACGAGGG	-4.08 ± 0.42	-3.38 ± 0.3
GUCAAGCAAUAUUACGAUCC	-1.48 ± 0.18	-0.693 ± 0.21
GUCAAGCAAUAUUACGAUUA	-1.04 ± 0.1	-0.259 ± 0.068
GUCAAGCAAUAUUACGCACC	–	-0.99 ± 0.47

Sequence	self-splicing fitness (ln) (30 °C)	self-splicing fitness (ln) (37 °C)
GUCAAGCAAUAUUACGCAGC	–	-3.49 ± 0.35
GUCAAGCAAUAUUACGCCAG	-4.54 ± 0.28	-3.95 ± 0.33
GUCAAGCAAUAUUACGCCUA	-0.294 ± 0.12	0.0798 ± 0.093
GUCAAGCAAUAUUACGCUGG	-4.08 ± 0.28	-3.72 ± 0.29
GUCAAGCAAUAUUACGCUUG	-4.27 ± 0.36	-2.06 ± 0.23
GUCAAGCAAUAUUACGGAAA	-2.28 ± 0.14	-1.72 ± 0.12
GUCAAGCAAUAUUACGGCAG	–	-2.86 ± 0.29
GUCAAGCAAUAUUACGGGAG	-3.23 ± 0.1	-1.07 ± 0.081
GUCAAGCAAUAUUACGGUCG	-3.23 ± 0.14	-1.26 ± 0.13
GUCAAGCAAUAUUACGUACA	-3.13 ± 0.14	-1.73 ± 0.098
GUCAAGCAAUAUUACGUCGA	-3.6 ± 0.42	-4.19 ± 0.46
GUCAAGCAAUAUUACGUCUA	-1.94 ± 0.1	-0.679 ± 0.079
GUCAAGCAAUAUUACGUGCA	-1.58 ± 0.11	-0.243 ± 0.1
GUCAAGCAAUAUUACGUUAC	-3.02 ± 0.17	-2.96 ± 0.17
GUCAAGCAAUAUUACGUUGG	-4.53 ± 0.31	-3.51 ± 0.3
GUCAAGCAAUAUUACGUUGU	-3.69 ± 0.13	-2.76 ± 0.13
GUCAAGCAAUAUUACGUUUU	-2.8 ± 0.11	-0.976 ± 0.1
GUCCAGCAAUAUUACGAAAG	-3.37 ± 0.21	-0.318 ± 0.17
GUCCAGCAAUAUUACGAAAU	-0.587 ± 0.1	-0.0182 ± 0.12
GUCCAGCAAUAUUACGAAGU	-0.504 ± 0.074	0.0552 ± 0.11
GUCCAGCAAUAUUACGACUC	-0.116 ± 0.087	-0.335 ± 0.1
GUCCAGCAAUAUUACGAGAU	-2.92 ± 0.13	-1.32 ± 0.11
GUCCAGCAAUAUUACGAUGG	-3.74 ± 0.16	-3.37 ± 0.25
GUCCAGCAAUAUUACGCCGA	-1.78 ± 0.22	-2.03 ± 0.14
GUCCAGCAAUAUUACGCGAA	-1.21 ± 0.11	0.483 ± 0.11
GUCCAGCAAUAUUACGCGGC	-2.27 ± 0.26	-2.6 ± 0.48
